Test: soluble on expression in E. coli; label from the status in PepcDB or PDB records

Soluble on expression in E. coli, not soluble:
MGSDKIHHHHHHMERHNAIPIYDAELPLTSGVIPLVAGLTMPGCLRDASPDAWGRRVILNKRFGKTALQIDPGSIDELSYLIESGSDRIGALDFQRSPTEYIPRLASGAPLEELIKAAELVEKGVPLTPELAQALQHGTSIGGARPKALVQSDNHKFIAKFSTSTDLYSVVKAEFIAMKLALMAGLHVAPVNLLQVAGKDVLMVERFDRVAAPAGWQRKGIVSALTMLQLDEMMARYASYHDLANLVRQRFMRAPSTLRELFSRLAFNILIGNTDDHARNHAAFWDGRMLQLTPAYDICPQSRTGRTASQAMQISDGQNSSQITTCLKAAPHFLLNEAEAGLIIEGQIRCIEENWPTICEEADLSEIDRNLMWRNQVLNPFAFEGLEGSSLERLAKKYR
MGSDKIHHHHHHMETDMPADMIQPLCEIDDLRIGFHGHDGALTEAVRGLSLTLHRGERLGIVGESGSGKSLTGRALLGLLPPAAQYRAKAMTFDGQDLLSMSARKRRQLCGQQMGMILQDPKYSLNPVMTVAQQMREVFDLHGPKLGRREMREQIIAALAAVHIRNPERVADAYPHELSGGMGQRVMIAMMVSSGPRLLVADEPTSALDVLVSMQVLGILDEMIEKHHTGLIFISHDLPLVMSFCDRVVVMFAGRVVETCAARDLVHARHPYTRGLLAASPPLIDPPDQLPVLKPDPAWLTQPAGASA
MGSDKIHHHHHHMETDRLIIMDKLRAMRMFVRVVDAGSFSRVANELNVTTSMISKEIGRLEEDLGVRLLHRSTRGQQLTSIGEGYLKRCRELLVQVDDADAYVQHMQENPRGKLRINAPMALGITDLSQLFSAYMKQYPDVELDIQLGDESLDLIEHGFDLGFRASSQMLDSNYVGKPLVSFTYKVCASASYLESHPPIREVEDLAAHNCFVYSYFKSGNFWPLAQGITVAGSLKVNSTLFMKQVIEDGLGIGFLPSFVAREGIEQGKLVEVLPEVGRPDLTLYALYPNRLFTPPKLLSCIEFLQSWFLSRNLDEGWLQ
MGSDKIHHHHHHMETLYLKTLIVTAEKGSFSKAAAELCITQSAVSQRVKFLEERYGCELLDRSGPVMMLTAAGEAVVRKAQAILDIEKTLQDELKKFTGRQRLSICCTPSFGIAHMPKVLNRFMLRNADIVDLKFMFYSPEQAVKGLAEREFDIGIIEHCEDLDLADFHTATLPRDELVFVSAPSLGIPTPLVTIERLFEERLITRKDGCSSKKLLRLNLASIGKDLEGFRSTVVYDDLHLTVDTVLDGGGVAFVSSCLVNKYLENGQLKQHRVEGFCHSRQRTVALSRSKVQDRLVSDFLACLDTVFTDQCHRSSCPT
MGSDKIHHHHHHMETSAPRAGSQVVATTARHSAAYRADPLRVSSRDKLTEMAASSQGNFEGNFESLDLAEFAKKQPWWRKLFGQESGPSAEKYSVATQLFIGGVTGWCTGFIFQKVGKLAATAVGGGFFLLQLANHTGYIKVDWQRVEKDMKKAKEQLKIRKSNQIPTEVRSKAEEVVSFVKKNVLVTGGFFGGFLLGMAS
MGSDKIHHHHHHMEVKELERDKNRVVLEYVFGAEEIAQAEDKAVRYLNQRVEIPGFRKGRIPKNVLKMKLGEEFQEYTLDFLMDLIPDTLKDRKLILSPIVTERELKDVTARVVVEVHEEPEVRIGDISKIEVEKVDEEKVLEKYVERRIEDLRESHALLEPKEGPAEAGDLVRVNMEVYNEEGKKLTSREYEYVISEDEDRPFVKDLVGKKKGDVVEIEREYEGKKYTYKLEVEEVYKRTLPEIGDELAKSVNNEFETLEQLKESLKKEGKEIYDVEMKESMREQLLEKLPEIVEIEISDRTLEILVNEAINRLKREGRYEQIVSSYESEEKFREELKERILDDIKRDRVIEVLAQEKGISVNDEELEKEAEELAPFWGISPDRAKSLVKARQDLREELRWAILKRKVLDLLLQEVKVKVVEPKGEGDDSEGKEDN
MGSDKIHHHHHHMFEIKVSQEIKNACPVFAGAAVYAAVKNTAYCDGLWKEINTFTEDLTTTTQMADIKLQPVIAATREAYKRCGKDPGRYRPSAEALRRRLMRGIPLYQIDTLVDLINLVSLRTGHSIGGFDADKIQGNHLELGIGKAEEPFEGIGRGILNIEGLPVYRDSFGGIGTPTSDHERTKMDIGTTHILAIVNGYNGKEGLKEAAEMIQSLLKDYAGSDGGELIYFE
MGSDKIHHHHHHMFETITPESIKENILNELALVDVREGSYTNNLVSPTALAIWKLYDSLNALIPMVYVDETSGVYIDKKAAHYGITRKSGTKATAVLHFTGVDGKVVPKGTVFLTGDGLEFVTESAVTITAGAARTTAIAAEAGEAYNVPGGSITQQIVSISGLTGVTNDAAVGGTDPESDKSLVERLYAYLRKPATSGNVYHYEQWALAVDGVGGVKVAPLWNGPGTVKVLIVSPAKAPVDQEVVTRCADHIQQNRPIGAAVTVESASALMINVEATITIESTTTKSAVKEAFANSLNAYLQSIAFEKYELIYNRLAFMLLDIEGVIDYEDLTVNGGTSNITIAANEVPVAGMVVIS
MGSDKIHHHHHHMFGLIGHLTSLEHAQAVAQELGYPEYADQGLDFWCSAPPQIVDSIIVTSVTGQQIEGRYVESCFLPEMLASRRIKAATRKILNAMAHAQKHGINITALGGFSSIIFENFKLEQFSQVRNIKLEFERFTTGNTHTAYIICKQVEEASKQLGINLSNATVAVCGATGDIGSAVTRWLDARTDVQELLLIARDQERLKELQGELGRGKIMGLTEALPQADVVVWVASMPRGVEIDPTTLKQPCLLIDGGYPKNLATKIQYPGVHVLNGGIVEHSLDIDWKIMKIVNMDVPARQLFACFAESMLLEFEKLYTNFSWGRNQITVDKMEQIGRVSVKHGFRPLLV
MGSDKIHHHHHHMFKKLAADLTGFSDIGQVIHPDDFDKAAADDYVLHEDGEKIYFLIKSKTDEYCFTNLALVHLDGESAVSSKRVLYRYPYAHYPIRHVMFETAGTVDLDVEIKFEIGGKHYSIDVDKKQLEHVKDLYKALLAIAEKQYEGQKMLEFANSSLNHSVTILGGLRQGDMNVPQTFKDLSQESFDWLQGHYYKWNQKDFGSFYEKYINN
MGSDKIHHHHHHMFKPQGLYDYICQQWQEEILPSLCDYIKIPNKSPHFDAKWEEHGYMEQAVNHIANWCKSHAPKGMTLEIVRLKNRTPLLFMEIPGQIDDTVLLYGHLDKQPEMSGWSDDLHPWKPVLKNGLLYGRGGADDGYSAYASLTAIRALEQQGLPYPRCILIIEACEESGSYDLPFYIELLKERIGKPSLVICLDSGAGNYEQLWMTTSLRGNLVGKLTVELINEGVHSGSASGIVADSFRVARQLISRIEDENTGEIKLPQLYCDIPDERIKQAKQCAEILGEQVYSEFPWIDSAKPVIQDKQQLILNRTWRPALTVTGADGFPAIADAGNVMRPVTSLKLSMRLPPLVDPEAASVAMEKALTQNPPYNAKVDFKIQNGGSKGWNAPLLSDWLAKAASEASMTYYDKPAAYMGEGGTIPFMSMLGEQFPKAQFMITGVLGPHSNAHGPNEFLHLDMVKKLTSCVSYVLYSFSQKK
MGSDKIHHHHHHMFLQPLLAKKIIAEVKKMYEREVIIVNTDGLIMAGTNDERVGQFHEGALICAKERRSVIITKEDETRLKGVKAGINLPVFFDHDVISVFGLTGEPAEIQPFGELLRKMTELFIKESRHLEQSQWRERMLESFMIDWLQLKEWSPSFLEKAQLLGVDLSSRRQMILIQGYEWSPHDIEQMARSWKSSYPADLFIRWGNERILINHEVPQHEQRDRLLRKILHICSFANTASSQYTAAGAGRAVASSSLTDSYEQAEKALAVSLKRKTPIFEEDLKLDMCLTEISPGTRNEFPQRVLGKALEHQELMNTIRTFFHHDLSLKQTAEDMHIHINTLRYRLAKAEQLTGLRFDRTEDVVTMYVALYFLDQDTK
MGSDKIHHHHHHMFNEDTKFASPYEINVLNELTGKNFQEDDLILLEKLSGMDYRKRVYVSEDQIGTLEFDLLDLTWKFIPSPLYYMIEDPKISLKYTKKRLKGKYIKEELLENPEELNEALKDNFEYIGVKIGDFLGVGVRKEDRVKVKDLSRKKELDFQKIADYLEYNKEYLDEMVENSIEILQDAVEKYKRKGYAINASFSGGKDSAVCTLISKEVIPDLDVVFIDTGLEYPETLNYVKDFVDKYDINLDTVDGDNFWDNLEKEGIPTKDNRWCNSACKLMPLKRYLKKKYGNKKVLTIDGSRKYESFTRANLDYERRSGFIDFQTNVFPILDWNSIDIWSYIYSKDIPYNPMYDKGFERIGCYLCPSALNSEFLRVKELHPDYFERWVKYLKKYFPESEVLRGFWRWDELPPKMVELEENMGVDIDKKKRLKRITQL

Reference: the DeepSol protein solubility set
